Measurements reported in patent US12258605B2, “Alkane oxidation by modified hydroxylases” (The California Institute of Technology, priority 2005, dated 2025).
Substitutions are numbered along the chain they refer to. In names and notes the source's numbering stands.

B1: 35-E11: P450 BM-3 variant, SEQ ID NO:7: 53-5H substitutions plus E464G and I710T (protein)
chain: TIKEMPQPKTFGELKNLPLLNTDKPVQALMKIADELGEIFKFEAPGCVTRYLSSQRLIKEACDESRFDKNLSQALKFFRDFSGDGLFTSWTHEINWKKAHNILLPSFSQQAMKGYHAMMVDIAVQLVQKWERLNADEHIEVSEDMTRLTLDTIGLCGFNYRFNSFYRDQPHPFIISMVRALDEVMNKLQRANPDDPAYDENKRQCQEDIKVMNDLVDKIIADRKARGEQSDDLLTQMLNGKDPETGEPLDDGNISYQIITFLIAGHETTSGLLSFALYFLVKNPHVLQKVVEEAARVLVDPVPSYKQVKQLKYVGMVLNEALRLWPTFPAFSLYAKEDTVLGGEYPLEKGDEVMVLIPQLHRDKTIWGDDVEEFRPERFENPSAIPQHAFKPFGNGQRACIGQQFALHEATLVLGMMLKHFDFEDHTNYELDIKETLTLKPEGFVVKAKSKKIPLGGIPSPSTGQSAKKVRKKAENAHNTPLLVLYGSNMGTAEGTARDLADIAMSKGFAPQVATLDSHAGNLPREGAVLIVTASYNGHPPDNAKQFVDWLDQASADEVKGVRYSVFGCGDKNWATTYQKVPAFIDETLAAKGAENIADRGEADASDDFEGTYEEWREHMWSDVAAYFNLDIENSEDNKSTLSLQFVDSAADMPLAKMHGAFSTNVVASKELQQPGSARSTRHLEIELPKEASYQEGDHLGVIPRNYEGTVNRVTARFGLDASQQIRLEAEEEKLAHLPLAKTVSVEELLQYVELQDPVTRTQLRAMAAKTVCPPHKVELEALLEKQAYKEQVLAKRLTMLELLEKYPACEMKFSEFIALLPSIRPRYYSISSSPRVDEKQASITVSVVSGEAWSGYGEYKGIASNYLAELQEGDTITCFISTPQSEFTLPKDPETPLIMVGPGTGVAPFRGFVQARKQLKEQGQSLGEAHLYFGCRSPHEDYLYQEELENAQSEGIITLHTAFSRMPNQPKTYVQHVMEQDGKKLIELLDQGAHFYICGDGSQMAPAVEATLMKSYADVHQVSEADARLWLQQLEEKGRYAKDVWAG
modifications: mutant P450 35-E11 protein sequence
B2: 20-D3: P450 BM-3 variant, SEQ ID NO:11; 35-E11 plus H285R (protein)
chain: B1 chain with H285R
modifications: mutant P450 20-D3 protein sequence
notes: 35-E11 plus H285R
B3: P450PMO: P450 BM-3 variant, SEQ ID NO:125; 7-7 plus G443A and D698G; propane monooxygenase (protein)
chain: B1 chain with L52I, A74E, S82G, L188P, I366V, G443A, D698G
modifications: Mutant P450PMO protein sequence
notes: 7-7 plus G443A and D698G; propane monooxygenase
B4: Wild-type BM-3: wild-type cytochrome P450 BM-3 from Bacillus megaterium, SEQ ID NO:1 (protein, listed as Bacillus megaterium)
chain: TIKEMPQPKTFGELKNLPLLNTDKPVQALMKIADELGEIFKFEAPGRVTRYLSSQRLIKEACDESRFDKNLSQALKFVRDFAGDGLFTSWTHEKNWKKAHNILLPSFSQQAMKGYHAMMVDIAVQLVQKWERLNADEHIEVPEDMTRLTLDTIGLCGFNYRFNSFYRDQPHPFITSMVRALDEAMNKLQRANPDDPAYDENKRQFQEDIKVMNDLVDKIIADRKASGEQSDDLLTHMLNGKDPETGEPLDDENIRYQIITFLIAGHETTSGLLSFALYFLVKNPHVLQKAAEEAARVLVDPVPSYKQVKQLKYVGMVLNEALRLWPTAPAFSLYAKEDTVLGGEYPLEKGDELMVLIPQLHRDKTIWGDDVEEFRPERFENPSAIPQHAFKPFGNGQRACIGQQFALHEATLVLGMMLKHFDFEDHTNYELDIKETLTLKPEGFVVKAKSKKIPLGGIPSPSTEQSAKKVRKKAENAHNTPLLVLYGSNMGTAEGTARDLADIAMSKGFAPQVATLDSHAGNLPREGAVLIVTASYNGHPPDNAKQFVDWLDQASADEVKGVRYSVFGCGDKNWATTYQKVPAFIDETLAAKGAENIADRGEADASDDFEGTYEEWREHMWSDVAAYFNLDIENSEDNKSTLSLQFVDSAADMPLAKMHGAFSTNVVASKELQQPGSARSTRHLEIELPKEASYQEGDHLGVIPRNYEGIVNRVTARFGLDASQQIRLEAEEEKLAHLPLAKTVSVEELLQYVELQDPVTRTQLRAMAAKTVCPPHKVELEALLEKQAYKEQVLAKRLTMLELLEKYPACEMKFSEFIALLPSIRPRYYSISSSPRVDEKQASITVSVVSGEAWSGYGEYKGIASNYLAELQEGDTITCFISTPQSEFTLPKDPETPLIMVGPGTGVAPFRGFVQARKQLKEQGQSLGEAHLYFGCRSPHEDYLYQEELENAQSEGIITLHTAFSRMPNQPKTYVQHVMEQDGKKLIELLDQGAHFYICGDGSQMAPAVEATLMKSYADVHQVSEADARLWLQQLEEKGRYAKDVWAG

Experiments:
[1] = Chloromethane dehalogenation (Purpald detection of formaldehyde); type: biochemical; details: for colorimetric response (Purpald): chloromethane, cofactor regeneration system
Source text: The dehalogenation reaction is based on the hydroxylation of the carbon atom carrying the halogen by a spontaneous (base catalyzed) alpha-elimination reaction which leads to the formation of an aldehyde or ketone depending on the starting haloalkane. The expected reaction mechanism for the dehalogenation of a general alpha-haloalkane is described by the scheme:
To test the feasibility of this approach, chloromethane was chosen as substrate for the dehalogenation reaction. Compared to other haloalkanes, chloromethane (CM) has the advantage to be moderately soluble in water (0.5 g/100 ml) and to lead to formaldehyde as end product of the hydroxylation/alpha-elimination reaction. Formaldehyde can be then readily detected by colorimetric reaction with Purpald as described previously. To test the reaction, two BM-3 mutants from later rounds of random mutagenesis, 35-E1141 and 20-D3, were incubated in the presence of CM and a cofactor regeneration system based on NADP^+, glucose-6-phosphate and glucose-6-phosphate dehydrogenase. Reactions with wild-type P450 BM-3 and without enzyme were included as controls.
The reaction was repeated in the presence of additional BM-3 mutants, including 1-8H, 1-12G2 and the wild-type P450 BM-3 in which A328 was substituted with valine (BM-3-A328V) (FIG. 27B). […] Wild-type BM-3 was substituted with other amino acid residues at position […].
The activity of BM-3-A328V on CM and other substrates such as HME, DME, and propane was further investigated by measuring product formation rate, cofactor consumption and coupling efficiency (Table 14). This mutant was also found to be capable to hydroxylate ethane to ethanol, although only for a total of about 5-10 turnovers. In Table 14 “consumption” rates are expressed as nmol NADPH/nmol enzyme/min and “product formation” rates are expressed as nmol product/nmol enzyme/min.

[2] = Reactions on alkanes, total turnovers (Table 18): propane; type: biochemical; details: for % rel. act. / TTN: propane (3 C atoms); for % rel. act.: TTN normalized to the highest value of the variant's series; for TTN: total turnovers, standardized reaction conditions
Procedure: Reactions on alkanes. Reactions with alkanes from pentane to decane were carried out at 3 mL-scale using 100 mM KPi pH 8.0 buffer containing 2% ethanol (to allow alkane solubilization) and purified protein. 2.5 mL KPi buffer were added with 60 μL of 90 mM alkane solution in ethanol (final conc.=1.8 mM), 150 μL enzyme solution at 1 μM (final conc.=50 nM), and 300 μL NADPH regeneration solution (100 units/mL isocitrate dehydrogenase, 70 mg/mL isocitrate, 1.5 mg/ml NADP^+). Vials were sealed and stirred for 24 hours at 4° C. 1 mL-aliquot of the reaction was removed, added with 10 μl internal standard (25 mM 1-bromohexane in ethanol), and extracted with 200 μl chloroform (30 sec vortexing, 1 min centrifugation at 10000 g). The organic phase was removed and analyzed by gas chromatography. Reactions with ethane, propane, and butane were carried out as described for longer alkanes with the only difference that alkane-saturated KPi buffer was used. Propane reactions with variants from HL5 and L9 libraries were performed on 1 mL-scale reaction using 20 nM enzyme to reduce oxygen limitation. Propane and butane reactions were analyzed by direct injection of reaction solution on the GC using 1-pentanol as internal standard. Ethane reaction products were functionalized (see below) and analyzed by GC using 1-butanol as internal standard. All measurements were performed in triplicate.
Products from alkane reactions were identified and quantified by gas chromatography using authentic standards and calibration curves with internal standards. For the reactions with alkanes from pentane to decane, GC analyses were carried out using a Shimadzu GC-17A gas chromatograph, Agilent HP5 column (30 m×0.32 mm×0.1 μm film), 1 μL injection, FID detector, and the following separation program: 250° C. inlet, 250° C. detector, 50° C. oven for 3 min, 5° C./min gradient to 100° C., 25° C./min gradient to 230° C., and 230° C. for 3 min. For butane and propane (TTN) reactions, GC analyses were carried out using a Hewlett-Packard 5890 Series II Plus gas chromatograph, Supelco SPB-1 column (60 m×0.52 mm×0.5 μm film), 0.5 μL injection, FID detector, and the following separation program: 250° C. inlet, 275° C. detector, 80° C. oven for 2 min, 10° C./min gradient to 110° C., 25° C./min gradient to 275° C., and 275° C. for 2.5 min. For ethane and propane (rate) reactions, analysis of reaction mixtures was carried out by derivatization to alkyl nitrites followed by GC-ECD analysis. For laurate, reaction product analysis was carried out by derivatization with N-methyl-N-trimethylsilylheptafluorobutyramide followed by extraction with hexane. Organic solutions were analyzed by FID-GC.
Because 35E11 was only marginally stable, the engineering strategy described herein (see below) involved an initial stabilization step followed by iterative rounds of mutagenesis and screening. Random, saturation and site-directed mutagenesis methods were used to create libraries of mutants (FIG. 35), which were screened for activity on a propane surrogate, dimethyl ether. Positives were confirmed in a re-screen and purified for further analysis. Reactions with purified enzymes were carried out in sealed vials in the presence of propane-saturated buffer and a cofactor regeneration system. Improvement in propane total turnover number-moles of propanol produced per mole of enzyme—was a selection criterion for taking a mutant to the next round.
TTNs for each variant-substrate pair were determined using standardized reaction conditions (identical enzyme and substrate concentration, incubation time, cofactor regeneration system) (Table 18). TTN values were used to assess performance because TTN is a cumulative measure of both catalytic and coupling efficiency and because mutants were selected based on improvement in this property. […]

| Molecule | colorimetric response (Purpald) [1] | % rel. act. [2] [%] | TTN [2] | increase of total turnovers on propane ([2]; compared to 139-3) [fold] | turnovers on propane (TTN) ([2]; propane-saturated buffer, cofactor regeneration system) | total turnover number on CM ([1]; compared with the other mutants of the study) |
| --- | --- | --- | --- | --- | --- | --- |
| B1 | specific colorimetric response | 71.7 | 4550 ± 350 |  |  |  |
| B2 | specific colorimetric response |  |  |  |  |  |
| B3 |  | 100.0 | 20500 ± 1900 | 100 | more than 20,000 |  |
| B4 |  | 0.0 | 0 |  |  | no detectable activity |
